Results: article PMC8860586, “Vimentin binds to G-quadruplex repeats found at telomeres and gene promoters”

Experiments:
Vimentin [1] = molecular target: T1, Vimentin (Homo sapiens, UniProt P08670 2-466); test: EMSA; 150 mM KCl, pH 8.4; 5 mM Tris-HCl pH 8.4, 150 mM KCl; FA 5 nM DNA at 25 C; EMSA 500 nM DNA + 8 uM vimentin, 1 h room temperature, 1.5% agarose 0.5x TBE + 10 mM KCl, run at 4 C; settings: protein: commercial, chain copies: 4
Vimentin [2] = molecular target: T1, Vimentin; test: EMSA; 150 mM KCl, pH 8.4; Job plot max 0.1 DNA fraction, two tetramers per DNA; 5 mM Tris-HCl pH 8.4, 150 mM KCl; FA 5 nM DNA at 25 C; EMSA 500 nM DNA + 8 uM vimentin, 1 h room temperature, 1.5% agarose 0.5x TBE + 10 mM KCl, run at 4 C; settings: protein: commercial; chain copies: 4; four adjacent G4s
Vimentin [3] = molecular target: T1, Vimentin; test: fluorescence anisotropy; 150 mM KCl, pH 8.4, 25 C; tetramer concentration, 1:1 fit; 5 mM Tris-HCl pH 8.4, 150 mM KCl; FA 5 nM DNA at 25 C; EMSA 500 nM DNA + 8 uM vimentin, 1 h room temperature, 1.5% agarose 0.5x TBE + 10 mM KCl, run at 4 C; settings: protein: commercial; chain copies: 4; label: 5'-6-FAM; two adjacent G4s
Vimentin [4] = molecular target: T1, Vimentin; test: EMSA; no KCl, pH 8.4; 5 mM Tris-HCl pH 8.4, 150 mM KCl; FA 5 nM DNA at 25 C; EMSA 500 nM DNA + 8 uM vimentin, 1 h room temperature, 1.5% agarose 0.5x TBE + 10 mM KCl, run at 4 C; settings: protein: commercial; chain copies: 4; unfolded single strand
Vimentin [5] = molecular target: T1, Vimentin; test: EMSA; 150 mM KCl, pH 8.4; two complexes; 5 mM Tris-HCl pH 8.4, 150 mM KCl; FA 5 nM DNA at 25 C; EMSA 500 nM DNA + 8 uM vimentin, 1 h room temperature, 1.5% agarose 0.5x TBE + 10 mM KCl, run at 4 C; settings: protein: commercial; chain copies: 4; three adjacent G4s

T1 sequence (P08670 2-466): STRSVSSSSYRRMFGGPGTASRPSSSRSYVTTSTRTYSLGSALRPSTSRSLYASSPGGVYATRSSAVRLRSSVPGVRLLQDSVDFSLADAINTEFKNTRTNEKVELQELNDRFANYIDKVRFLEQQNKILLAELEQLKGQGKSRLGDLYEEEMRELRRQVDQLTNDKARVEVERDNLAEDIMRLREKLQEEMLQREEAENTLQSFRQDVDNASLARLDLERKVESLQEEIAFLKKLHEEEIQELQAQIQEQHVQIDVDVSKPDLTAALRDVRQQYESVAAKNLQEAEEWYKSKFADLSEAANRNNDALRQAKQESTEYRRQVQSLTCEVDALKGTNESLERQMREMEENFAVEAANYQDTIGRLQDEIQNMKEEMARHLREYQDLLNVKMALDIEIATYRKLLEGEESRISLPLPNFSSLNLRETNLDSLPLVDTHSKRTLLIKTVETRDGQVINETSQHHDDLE

B1: hTERT (structured_DNA)
DNA: GGGGAGGGGCTGGGAGGGCCCGGAGGGGGCTGGGCCGGGGACCCGGGAGGGGTCGGGACGGGGCGGGG
Vimentin [1]; G4 repeat
  binding result: binds

B2: 4TEL (structured_DNA)
DNA: TTAGGGTTAGGGTTAGGGTTAGGGTTAGGGTTAGGGTTAGGGTTAGGGTTAGGGTTAGGGTTAGGGTTAGGGTTAGGGTTAGGGTTAGGGTTAGGG
Vimentin [2]
  binding result: binds

## CGGGCGGGCGCGAGGGAGGGGAGGCGAGGAGGGGCGTGGCCGGC (structured_DNA) [KIT2KIT*]
Vimentin [1]; two adjacent G4s
  binding result: binds

## GGCGAGGAGGGGCGTGGCCGGC (structured_DNA) [KIT*]
Vimentin [1]; single G4
  binding result: no binding

B3: ILPR (structured_DNA)
DNA: ACAGGGGTGTGGGGACAGGGGTGTGGGGACAGGGGTGTGGGGACAGGGGTGTGGGG
Vimentin [1]; G4 repeat
  binding result: binds

## CGGGCGGGCGCGAGGGAGGGG (structured_DNA) [KIT2]
Vimentin [1]; single G4
  binding result: no binding

## TTAGGGTTAGGGTTAGGGTTAGGG (structured_DNA) [TEL]
Vimentin [1]; single G4
  binding result: no binding

## TTAGGGTTAGGGTTAGGGTTAGGGTTAGGGTTAGGGTTAGGGTTAGGG (structured_DNA) [FAM-2TEL]
Vimentin [3]
  Kd: 25.7 ± 2.4 nM

## TGGCCCTGGTGGGCGGAGGCAAAGGGGGAGCCAGGGGCGGAGAAAGGGT (ssDNA) [G-rich noG4]
Vimentin [4]
  binding result: binds

B4: 3TEL (structured_DNA)
DNA: TTAGGGTTAGGGTTAGGGTTAGGGTTAGGGTTAGGGTTAGGGTTAGGGTTAGGGTTAGGGTTAGGGTTAGGG
Vimentin [5]
  binding result: binds
